# Source: IntAct's records for PubMed 23222643
# B1: Formin-like protein 3 (Mus musculus), Q6ZPF4-1 (parent)
# chain: MGNLESTDGGPGEPPSVPLLLPPGKTPMPEPCELEERFALVLSSMNLPPDKARLLRQYDNEKKWDLICDQERFQVKNPPHTYIQKLQSFLDPNVTRKKFRRRVQESTKVLRELEISLRTNHIGWVREFLNDENKGLDVLVDYLSFAQCSVMFDFEGLESGDDGAFDKLRSWSRSIEDLQPPNALSAPFTNSLARSARQSVLRYSTLPGRRALKNSRLVSQKDDVHVCILCLRAIMNYQYGFNLVMSHPHAVNEIALSLNNKNPRTKALVLELLAAVCLVRGGHEIILAAFDNFKEVCKELHRFEKLMEYFRNEDSNIDFMVACMQFINIVVHSVEDMNFRVHLQYEFTKLGLEEFLQKSRHTESEKLQVQIQAYLDNVFDVGGLLEDAETKNVALEKVEELEEHVSHLTEKLLDLENENMMRVAELEKQLLQREKELESIKETYENTSNQVHTLRRLIKEKEEAFQRRCHLEPSARGLESMGGEALARVGPTELTEGIPPSDLDLLAPAPPTEETLPLPPPPAPPLPPPPPPLPDKCPPAPPLPGAAPSVVLTVGLSAIRIKKPIKTKFRLPVFNWTALKPNQINGTVFSELDDEKILEDLDLDRFEELFKTKAQGPALDLICSKNKTAQKAASKVTLLEANRAKNLAITLRKAGRSAEEICRAIHTFDLQTLPVDFVECLMRFLPTEAEVKLLRQYERERQPLEELAAEDRFMLLFSKVERLTQRMAGMAFLGNFQDNLQMLTPQLNAIIAASASVKSSQKLKQMLEIILALGNYMNSSKRGAVYGFKLQSLDLLLDTKSTDRKMTLLHFIALTVKEKYPELANFWQELHFVEKAAAVSLENVLLDVKELGRGMELIRRECSIHDNSVLRNFLSTNEGKLDKLQRDAKTAEEAYNAVVRYFGESPKTTPPSVFFPVFVRFIRSYKEAEQENEARKKQEEVMREKQLAQEAKKLDAKTPSQRNKWQQQELIAELRRRQAKEHRPVYEGKDGTIEDIITVLKSVPFTARTAKRGSRFFCDAAHHDESNC
# Variants of: B1
# Settings: with acts_rabit ACTA1, P68135
row,effect of a mutation on the interaction,Variant
1,decreasing interaction strength,I649A
